# From US20010019714A1 (priority 1998, published 2001)
# Target: T1, HLA-A2 on T2 cells (Homo sapiens, UniProt P04439, D140Y/D185E/D98H/E176V/E277Q/G131W/G231S/I119V/I121R/I166T/I218V/L300P/L318F/N151K/N90K/P208A/P217A/Q86G/Q94H/R138H/R169H/T345S)
# T1 construct: T2 cell line expressing the HLA-A2 molecules; endogenous in cells; host or cells: T2 cell line (TAP-deficient), from Dr Peter Creswell, Yale University
# Test: peptide-induced MHC class 1 assembly assay (HLA-A2 binding and stabilization, FACS)
# Format: cell-based
# Details: for binding to HLA-A2 on T2 cells (shift of fluorescent peak): antibody BB7.2, FACS, FIG. 1; for order of potency by comparison of fluorescence indices: fluorescence index = mean fluorescence of peptide treated T2 cells / untreated T2 cells
# Description: Location of the potential CTL containing motifs of the HIV-1(LAI) Rev protein has been predicted by the reported peptide-binding motif algorithms. […] The ability of the peptides containing these motifs to bind and stablize membrane-bound HLA-A2 molecule was assessed using the T2 cell line. The cell line has been well documented to have defective TAP transporter function resulting in the majority of the intracellularly generated peptides being unable to be transported into the endoplasmic reticulum to associate with the newly synthesized HLA class 1 molecules, i.e. HLA-A2 (see references 4, 5). […] Upon interaction with suitable peptides introduced exogenously, the stability of the HLA-A2 molecules can be restored.
# T2 cell line expressing the HLA-A2 molecules was obtained from Dr Peter Creswell at the Howard Hughes Research Institute of Yale University. The cells were propagated in Iscove's complete medium (Iscove's medium supplemented with 10% heat-inactivated bovine serum, 120.0 units per ml of penicilin G sodium, 120 μg per ml of streptomycin sulphate, and 0.35 mg per ml of L-glutamine). The ability of individual 8 to 13 mer peptides, prepared as described in Example 1 and identified in Table 1, to bind and modulate the stability of the A2 molecules on T2 cells was determined using a peptide-induced MHC class 1 assembly assay, which was modified from a protocol described by Yuping Deng et al. (ref. 6).
# In essence, 1×10^6 T2 cells were incubated with a specified concentration of the test peptide in 250.0 μl of Iscove's serum-free medium (Iscove's medium supplemented with 120.0 units per ml of penicillin G sodium, 120.0 ug per ml of streptomycin sulphate and 0.35 mg per ml of L-glutamine) in a sterile Eppendorf tube at 37° C. overnight. The cells were then incubated on ice for 30 min before 1.0 ml of Iscove's complete medium supplemented with 5.0 ug per ml of brefeldin A, 12.5 ug per ml of anisomycin and 5.0 ug per ml of cyclohexamide was added. The samples were then incubated for 3.0 hr in a 37° C. CO2 incubator.
# In the presence of the drugs, further protein synthesis and intracellular delivery of HLA-A2 molecules to the cell surface are inhibited, and de-stabilization of the conformation of the membrane-bound class 1 molecules at the physiological temperature occurs.
# The cells were then washed twice with ice-cold PBA (a buffer containing 0.9% sodium chloride, 0.5% bovine serum albumin and 0.02% sodium azide). 100.0 ul of PBA containing 5.0 ug of a conformation-sensitive HLA-A2-specific mouse monoclonal antibody, BB7.2 (ref. 7), was then added to each test sample. The reaction was allowed to take place on ice for 45 min. The cells were then washed three times with ice-cold PBA.
# The binding of BB7.2 was then detected by adding […] containing 1.0 ug of goat anti-mouse IgG F(ab′) fluorescein (FITC) conjugate to each cell sample. After 30 min incubation on ice, the cells were washed twice with PBA, and twice again with PBS, pH 7.2. Cells were fixed immediately after washing was completed by adding 100.0 ul of 1.0% paraformaldehyde to the cell pellet. The cells were gently resuspended and were FACS analysed usually within three days after the experiments were completed.
# The fluorescence index, which is an indicator for increased density of membrane-bound A2 molecules, was calculated by dividing the mean fluorescence of an experimental sample (peptide treated T2 cells) by the mean fluorescence of the control sample (T2 cells not treated with peptide).
Sequence,binding to HLA-A2 on T2 cells (shift of fluorescent peak),order of potency by comparison of fluorescence indices
YLGRSAEPV [CLP-177],capable of binding to HLA-A2 on T2 cells,CLP-177>CLP-72>CLP-178>CLP-182
ILVESPAVL [CLP-72],capable of binding to HLA-A2 on T2 cells,CLP-177>CLP-72>CLP-178>CLP-182
PLQLPPLERLIL [CLP-182],capable of binding to HLA-A2 on T2 cells,CLP-177>CLP-72>CLP-178>CLP-182
YLGRSAEPVPL [CLP-178],capable of binding to HLA-A2 on T2 cells,CLP-177>CLP-72>CLP-178>CLP-182
